What was measured:
NlpA-ZZ fusion protein [1] = test: flow cytometry of NlpA-ZZ spheroplasts labeled with 5 nM FITC-conjugated Human IgG; residual fluorescence at Time 180 min
NlpA-ZZ fusion protein [2] = test: flow cytometry of NlpA-ZZ spheroplasts labeled with 5 nM FITC-conjugated Human IgG; residual fluorescence at Time 1440 min
NlpA-ZZ fusion protein [3] = test: flow cytometry of NlpA-ZZ spheroplasts labeled with 5 nM FITC-conjugated Human IgG; residual fluorescence at Time 0 min
NlpA-ZZ fusion protein [4] = test: flow cytometry of NlpA-ZZ spheroplasts labeled with 5 nM FITC-conjugated Human IgG; residual fluorescence at Time 120 min
NlpA-ZZ fusion protein [5] = test: flow cytometry of NlpA-ZZ spheroplasts labeled with 5 nM FITC-conjugated Human IgG; residual fluorescence at Time 20 min
NlpA-ZZ fusion protein [6] = test: flow cytometry of NlpA-ZZ spheroplasts labeled with 5 nM FITC-conjugated Human IgG; residual fluorescence at Time 4320 min
NlpA-ZZ fusion protein [7] = test: flow cytometry of NlpA-ZZ spheroplasts labeled with 5 nM FITC-conjugated Human IgG; residual fluorescence at Time 60 min
NlpA-ZZ fusion protein [8] = test: flow cytometry of NlpA-ZZ spheroplasts labeled with 5 nM FITC-conjugated Human IgG; residual fluorescence at Time 30 min
NlpA-ZZ fusion protein [9] = test: flow cytometry of NlpA-ZZ spheroplasts labeled with 5 nM FITC-conjugated Human IgG; residual fluorescence at Time 10 min
NlpA-ZZ fusion protein [10] = test: flow cytometry of spheroplasts expressing NlpA-ZZ, labeled with 50 nM FITC-conjugated Human IgG
NlpA-ZZ fusion protein [11] = test: flow cytometry of NlpA-ZZ spheroplasts labeled with 5 nM FITC-conjugated Human IgG; residual fluorescence at Time 240 min

Substance: commercial Human IgG antibodies (FITC-conjugated) (antibody)
- M (FL1-Height) (NlpA-ZZ fusion protein [1]): 148
- M (FL1-Height) (NlpA-ZZ fusion protein [2]): 146
- M (FL1-Height) (NlpA-ZZ fusion protein [3]): 153
- M (FL1-Height) (NlpA-ZZ fusion protein [4]): 133
- M (FL1-Height) (NlpA-ZZ fusion protein [5]): 143
- M (FL1-Height) (NlpA-ZZ fusion protein [6]): 154
- M (FL1-Height) (NlpA-ZZ fusion protein [7]): 136
- M (FL1-Height) (NlpA-ZZ fusion protein [8]): 147
- M (FL1-Height) (NlpA-ZZ fusion protein [9]): 150
- M (FL1-Height) (NlpA-80R(scFv)): 3
- M (FL1-Height) (NlpA-ZZ fusion protein [10]): 2760
- M (FL1-Height) (NlpA-ZZ fusion protein [11]): 142

— patent publication US20130303393A1
